# Assay results taken from paper PMC4713147.
# System: H-NS (Escherichia coli)
# Assay: EMSA
# Details: apparent Kd; 200 pM DNA; EMSA: H-NS 0-500 nM, 200 pM 32P-labelled DNA, 4% polyacrylamide gel run at 4 C; buffer, salt and pH not stated (as in ref 99)
substance,measurement,value
GC rich region of pBR322,Kd,200 nM
bglG DRE (bglB primer pair),Kd,10 nM
